Experiment: soluble on expression in E. coli; label from the status in PepcDB or PDB records

Sequence | soluble on expression in E. coli
MMVYPVKHSPLLRQPEHFIARDELKALVQKVTHNLVNIKDETGEFLLRLDDGRVIDTKGWAGWEWTHGVGLYGMYHYYQQTGDQTMRKIIDDWFADRFAEGATTKNVNTMAPFLTLAYRYEETRNPAYLPWLETWAEWAMNEMPRTDHGGMQHITLAEENHQQMWDDTLMMTVLPLAKIGKLLNRPEYVEEATYQFLLHVQNLMDKETGLWFHGWSYDGHHNFANARWARGNSWLTIVIPDFLELLDLPENNAVRRYLVQVLNAQIAALAKCQDESGLWHTLLDDPHSYLEASATAGFAYGILKAVRKRYVERHYAQVAEKAIRGIVKHISPEGELLQTSFGTGMGHDLDFYRHIPLTSMPYGQAMAMLCLTEYLRNYF | not soluble
MNKILIAAASSGTGKTTVTLGIMHALKKRGLRVQPFKVGPDYIDTNYHQAITGVASINLDSFLIDDDAMLAALFEKHGQSADISVIEGVMGLFDGLGIDRDNSSTSFIAKCTKTPVILVVDGKAISTSAAAIVDGFNRFDPELTIAGVIINRVASENHFSLIKGAIERYTDVPVLGYLPKNAAVALPERHLGLVPKEEMTELETKWEVLGDLIAEHVDLDRLLAISKTGAKLTVHPPEIQVPDFSGMRVAYALDAAFHFYYQDNLDFIRSTGATLIPFSPLEEREVPDADFIYIGGGFPEVFAERLAKNKSMHESILAAHEQGKPIYAECGGLMYLGSSLEMEAESYEMVGVFDGVSKMTTRLRKFGYCIAEPLEDTLLGKKGTAIRGHEFHHSVFETTEPTRMKLTKKRDGETVKEWHGGYQKGNTFASYLHIHFYQNLAMITHMFGAIERLEHHHHHH | soluble
MSFNRISAAEAASLIKHGYNIGLSGFTPAGTAKAVTAELAKIAEAEHAKGNPFQVGIFTGASTGESCDGVMSRAKAIRYRAPYTTNSDFRKAVNNGEIAYNDIHLSQMAQEVRYGFMGKVNVAIIEACEVTPDGKIYLTAAGGISPTICRLADQIIVELNAAHSKSCMGLHDVYEPLDPPYRREIPIYKPSDRIGLPYIQVDPKKIVGVVETNWPDEARSFADADPLTDKIGQNVADFLAADMKRGIIPSTFLPLQSGVGNIANAVLGALGRDKTIPAFEMYTEVIQNSVIGLIREGRIKFGSACSLTVTNDCLEGIYNDMDFFRDKLVLRPSEISNNPEVVRRLGIISINTAIEVDLYGNVNSTHIGGTKMMNGIGGSGDFTRNAYISIFTCPSVAKEGKISAIVPMVSHLDHSEHSVNIIITEQGVADLRGKSPKERAQAIIENCAHPDYKQLLWDYLKLAGGRAQTPHAIQAALGMHAELAKSGDMKNTNWAEYARLEHHHHHH | not soluble
SNRFIAVFSDITRHKQTEEDLLRSEQHYRLLHETMLQGVVYQDASGKIISMNPAAERILGKTPAEFLGSSSVGEEYLTIREDGSMFPGLEHPAMVSLRTGQKVQGVVMGVYNPRENFYRWININAVPIFRTGEDRPFQVYTLFDDI | not soluble
MVGIHQEVWLEVDLEFTKKMKIPVVRRDLGGGTVVITPGEHDYFIVVRQEDAPRNPSELYKKFLTPIVNVLRSYGLKADLRDQDIVVNGKKISGNGAMTHGNSIVIAGNILLSLDIDL | soluble
MDERWMVMKITIVFENHAGYRKGLIGYHGFSALVEANGYRVLVDTGTDGKVLLNNMSELGISPDDIDALFITHGHYDHTGGLRELLSARTEALDIYAHPGIFKRRLALKPKKREIGIPFTREELEELGGKFILSDKSKEILPGFISSGEIERITWDRAVGYFPDGSKDPVRDDMALIVEEGSKSVVITGCGHSGIINIAIHSKKLTNNRIAALIGGFHLKGIERSLLDEAVKKLRELEIEKLYPGHCTGIEEFAYLWSKFGNVEGIHVGKEIKILEHHHHHH | soluble
EGGDFVVGMVTDSGDIDDKSFNQQVWEGISRFAQENNAKCKYVTASTDAEYVPSLSAFADENMGLVVACGSFLVEAVIETSARFPKQKFLVIDAVVQDRDNVVSAVFGQNEGSFLVGVAAALKAKEAGKSAVGFIVGMELGMMPLFEAGFEAGVKAVDPDIQVVVEVANTFSDPQKGQALAAKLYDSGVNVIFQVAGGTGNGVIKEARDRRLNGQDVWVIGVDRDQYMDGVYDGSKSVVLTSMVKRADVAAERISKMAYDGSFPGGQSIMFGLEDKAVGIPEENPNLSSAVMEKIRSFEEKIVSKEIVVPVRSARMMN | soluble
MAHHHHHHMEPNADEPKKTSSVRQLLRQQRELQEMRKFGLAPLAVDTETHQEISPNIPEFISRAPWYYGATGPTLVHQRKQGDSATEVSDEVLDEKVDRIVVKGQASRFTAGACKNCGSRTHKTSECFQAKKKVGSVYTNRVTGSDIETHQEAKTYSQKRDRFVGEVGIDLMRGVRQDQQDDNVDVAAPATARHRPEDVFGSRTAQHGGVEVKELPKYLHNLDQQDGLFFDPKTGSMRANPNSGDSTKAFRGDLERYRTGDYYNYVESQYRFLTGQSRSFVDFEFDDAMRRAREQQQEPQQQEQNSTRGPVTKVLTETPQDVLLRSLYGASQPKFDSDVLPSFTTESKTSAPSSSPAPPVDALATTATATVTAHSSVQAASLSWVTTRNGHAAVYGSYFDPIHFRWGYACCKRMGKDTTGCSATHA | soluble
MKSIPGDIPQYLLIKAQLQARIQSGALKSGDKLPSERELCAIFNTTRITIRESLAQLESSGLIWRADRRGWFVTPERLWLDPTQNTNFHKLCREQGREPKTALLSGVLTTVPVEVMEPLQLQPFDQIYLLTRLRYADGRAVCYCENHCLPARVPELLQYDLNGSLTEVYESHYNLVYTSMHLSFYPTAMPAQAAQALGVMEGRPALLLRRLNYDQHGRVLDLDIEYWRHDSLRIEVDTH | not soluble
MARMNRPAPVEVTYKNMRFLITHNPTNATLNKFIEELKKYGVTTIVRVCEATYDTTLVEKEGIHVLDWPFDDGAPPSNQIVDDWLSLVKIKFREEPGCCIAVHSVAGLGRAPVLVALALIEGGMKYEDAVQFIRQKRRGAFNSKQLLYLEKYRPKMRLRFKDSNGHRNNCCIQ | soluble
MGSDKIHHHHHHMIPLHTSMRGLRCFCVAAECLSFKETAKRLYLTPSAVSHQIKQLEESLNQSLFIRQTRAVTLTEVGARFYQAIEPVMQQLVNTVSEFNQSDRMLEVSISMPEFFASELFMPKLIGWSSKYPNINLKLETIKSRSDMIKHTDASIMLSGKQQTNADVYDLFPITYIPACNAQLHAELSSQGFKALTQVPLILHKARPYAWHQWAENVGFDAFQPKQIIQLDSMFSVARAAEQGLGIALIPLPISQAWFDNGTLLSLFPHPLFSHDRYYLIRHTNEQQRPEVQLLIDWILKSFHDESH | not soluble
MKKVELLAPAGNLEKLKMAVLYGADAVYLGGEEFSLRAYAENFTLDELKAGVEFAHSKGKKVYVTINIFPHNDDLKKIPEYIKEVAGIGVDAIILSDPGILSIVKEIAPDMEIHLSTQANNTNFMSARFWHNHGVKRIILARELSLEEIREIREKTPDSLELEVFVHGAMCISYSGRCLLSNYMAGRDSNRGLCAHPCRWKYYLMEEKRPGEYYPVYENERGTFIFNSRDLCMIEHIPELVESGVSSFKIEGRMKSSFYVATVVKAYREAIDAYYEDKDNYKFDPRLLEEVCKVSHREFTTGFFFNKPGPKDQIYATSSYIREYDFVGVVQKYDKATKIATVEQRNRMYKGEEIEVVNPKGNFFVQKIEWMKNADGEDIDVAPHPQMTVYMPMKEDVEEFAMLRRKSSPNK | soluble
MSLQNKTVFVGISGGVDSAVSALLLKQQYREVIGIFMECWDNTLNNDQLGHRAFNEHKSGCSSKEDFREAQAIAQLLGIKLIKQNLVEPY | soluble
MERSQCGSRDRGVSGRPHLAPGLVVAAPPPPSPALPVPSGMQCARCRNHGVVSALKGHKRFCRWRDCACAKCTLIAERQRVMAAQVALRRQQAQEESEARGLQRLLCSGLSWPPGGRASGGGGRAENPQSTGGPAAGAALGLGALRQASGSATPAFEVFQQDYPEEKQEQKESKCESCQNGQEELISKSHQLYLGSSSRSNGVIGKQSIGSSISEYSNKPDSILSPHPGEQSGGEESPRSLSSSDLESGNESEWVKDLTATKASLPTVSSRPRDPLDILTKIFPNYRRSRLEGILRFCKGDVVQAIEQVLNGKEHKPDNRNLANSEELENTAFQRASSFSLAGIGFGTLGNKSAFSPLQTTSASYGGDSSLYGVNPRVGISPLRLAYSSAGRGLSGFMSPYLTPGLVPTLPFRPALDYAFSGMIRDSSYLSSKDSITCGRLYFRPNQDNP | soluble
MGSDKIHHHHHHMKIAHVAPLYESVPPRLYGGTERIISYLTEALVDLGHDVTLFASGDTKTSAKLVPCRERALRLDPRPLKSEIAAHLSMLDEVRKRADDFDVIHFHLSHFLHFPFFRDMPQRTVTTPHGRLDYADLAQAYDRFPRFPMVSISRSQRARFASANWLATIHHGLPVDLYEPDFEAGSDGGYLAFLGRMSRDKRPDRAIEIARRTGLKLKLAAKIGDGDRAYFEEVVQPMIDGDRVEYVGEIGEDQKSRFLGNAAALLFPIDWPEPFGLAVIEAMACGTPVMAWSCGAMPEIVDYGVTGFVVETIEDAVATMPALLQLDRRRIRAVFERRFSADRMARDYVEAYSRLRNGHEQSRAS | not soluble
MWKIMRSWKCGGMRWAHRQRPSHELLSQLSFDQHYKIRSNIELLIQDYASKPIAPLNYEYFLQYRPPLTKKEEYMLTIKTINLLLSLTCKRLNAIQRLPYNAVINPHIERTNSLYLKSLQTLLSIAYPYELHNPPKIQAKFTELLDDHEDAIVVLAKGLQEIQSCYPKFQISQFLNFHLKERITMKLLVTHYLSLMAQNKGDTNKRMIGILHRDLPIAQLIKHVSDYVNDICFVKFNTQRTPVLIHPPSQDITFTCIPPILEYIMTEVFKNAFEAQIALGKEHMPIEINLLKPDDDELYLRIRDHGGGITPEVEALMFNYSYSTHTQQSADSESTDLPGEQINNVSGMGFGLPMCKTYLELFGGKIDVQSLLGWGTDVYIKLKGPSKTALLSKK | soluble
MLSEVLLVSAPGKVILHGEHAVVHGKVALAVSLNLRTFLRLQPHSNGKVDLSLPNIGIKRAWDVARLQSLDTSFLEQGDVTTPTSEQVEKLKEVAGLPDDCAVTERLAVLAFLYLYLSICRKQRALPSLDIVVWSELPPGAGLGSSAAYSVCLAAALLTVCEEIPNPLKDGDCVNRWTKEDLELINKWAFQGERMIHGNPSGVDNAVSTWGGALRYHQGKISSLKRSPALQILLTNTKVPRNTRALVAGVRNRLLKFPEIVAPLLTSIDAISLECERVLGEMGEAPAPEQYLVLEELIDMNQHHLNALGVGHASLDQLCQVTRARGLHSKLTGAGGGGCGITLLKPGLEQPEVEATKQALTSCGFDCLETSIGAPGVSIHSATSLDSRVQQALDGL | soluble
MNRIEHYHDWLRDAHAMEKQAESMLESMASRIDNYPELRARIEQHLSETKNQIVQLETILDRNDISRSVIKDSMSKMAALGQSIGGIFPSDEIVKGSIGGYVFEQFEITCYTSLLAAAKNAGDTVSIPIIEAILNEEKQMADWLIQHIPQTTEKFLIRSETDGVEAKK | not soluble
MSNEQPNNPLHGLSLEKIVTRLVEHFGWNGLYERVRVNCFKKDPSIKSSLKFLRKTQWARDKVEALYIETFCLEHHHHHH | not soluble
GPGSMLASTPGSNFGGAVASSNNNGGQQPQRRMHPIRPLTIKQMLEAQSVGGGVLVVDGREVTQATVVGRVVGYENANMASGGGAITAKHFGYRITDNTGMLVVRQWIDADRMQEPLAINTHVRASGTVNVWQQTPIVTGTVVSMADSNEMNYHMLDAILTHFRLTQGNKRAPSSGVSIQNTASAVGMHNMLPGGDNKVLLTDLLVSFIKQHGSSGAGMSMDELTTSAQRYGFTHGDVRTAMRTLAAEGKVYQTHDNRFNI | soluble

From the DeepSol protein solubility set
